Experimental findings from PMC7941734 (Cell reports, 2021) are described below.

The target of the experiment is His6-tagged ASF1A S166E (recombinant) (human, UniProt Q9Y294 1-204, S166E). The experiment in a line: pull-down.
Sequence of His6-tagged ASF1A S166E (recombinant) (Q9Y294 whole entry S166E): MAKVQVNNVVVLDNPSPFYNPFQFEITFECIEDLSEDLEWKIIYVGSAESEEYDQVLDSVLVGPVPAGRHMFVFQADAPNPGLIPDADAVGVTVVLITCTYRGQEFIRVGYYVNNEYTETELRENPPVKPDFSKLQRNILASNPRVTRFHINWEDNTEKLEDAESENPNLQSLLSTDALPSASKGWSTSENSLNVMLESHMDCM

B1: GST-tagged FHA domain of MDC1 (aa 1–158) (domain or fragment, human, UniProt Q14676 1-158, looked up)
chain: MEDTQAIDWDVEEEEETEQSSESLRCNVEPVGRLHIFSGAHGPEKDFPLHLGKNVVGRMPDCSVALPFPSISKQHAEIEILAWDKAPILRDCGSLNGTQILRPPKVLSPGVSHRLRDQELILFADLLCQYHRLDVSLPFVSRGPLTVEETPRVQGETQ
B1: the binding result is reported as “binds”.
